The results in this text go back to patent WO2022059800A1 (dated 2022).

In this test the target is T1, recombinant Tie2-Fc fusion protein (R&D systems) (UniProt Q02763 23-745).
T1 construct: not shown: Fc part
The test can be described thus: Biacore 8K, Ang2 amine-coupled, Tie2-Fc as analyte, single-cycle kinetics. A general note: Surface plasmon resonance follows binding to a sensor surface in real time, without labels.

T1 sequence (Q02763 23-745 limits assumed): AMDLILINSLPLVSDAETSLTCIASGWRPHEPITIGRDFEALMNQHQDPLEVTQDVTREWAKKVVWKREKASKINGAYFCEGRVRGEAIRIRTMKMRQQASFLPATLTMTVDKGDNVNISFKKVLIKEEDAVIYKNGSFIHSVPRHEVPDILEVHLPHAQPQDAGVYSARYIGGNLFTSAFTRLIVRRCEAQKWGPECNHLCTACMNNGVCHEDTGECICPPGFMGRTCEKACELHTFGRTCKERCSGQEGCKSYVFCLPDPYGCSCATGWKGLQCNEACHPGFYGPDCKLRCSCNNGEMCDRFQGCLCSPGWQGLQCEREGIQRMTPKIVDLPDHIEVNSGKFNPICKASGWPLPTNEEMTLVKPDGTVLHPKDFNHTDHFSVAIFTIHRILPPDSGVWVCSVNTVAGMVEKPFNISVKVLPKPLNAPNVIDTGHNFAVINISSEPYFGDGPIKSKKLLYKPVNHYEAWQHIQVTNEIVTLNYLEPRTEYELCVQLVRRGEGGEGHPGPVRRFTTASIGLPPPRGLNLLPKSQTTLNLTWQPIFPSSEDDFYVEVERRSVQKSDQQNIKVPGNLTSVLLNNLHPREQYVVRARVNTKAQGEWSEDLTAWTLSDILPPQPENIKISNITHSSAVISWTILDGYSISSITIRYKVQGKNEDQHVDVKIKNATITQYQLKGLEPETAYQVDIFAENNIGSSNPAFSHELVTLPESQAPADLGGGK

B1: human recombinant Ang2 protein (ligand, UniProt O15123 19-496, looked up)
chain: YNNFRKSMDSIGKKQYQVQHGSCSYTFLLPEMDNCRSSSSPYVSNAVQRDAPLEYDDSVQRLQVLENIMENNTQWLMKLENYIQDNMKKEMVEIQQNAVQNQTAVMIEIGTNLLNQTAEQTRKLTDVEAQVLNQTTRLELQLLEHSLSTNKLEKQILDQTSEINKLQDKNSFLEKKVLAMEDKHIIQLQSIKEEKDQLQVLVSKQNSIIEELEKKIVTATVNNSVLQKQQHDLMETVNNLLTMMSTSNSAKDPTVAKEEQISFRDCAEVFKSGHTTNGIYTLTFPNSTEEIKAYCDMEAGGGGWTIIQRREDGSVDFQRTWKEYKVGFGNPSGEYWLGNEFVSQLTNQQRYVLKIHLKDWEGNEAYSLYEHFYLSSEELNYRIHLKGLTGTAGKISSISQPGNDFSTKDGDNDKCICKCSQMLTGGWWFDACGPSNLNGMYYPQRQNTNKFNGIKWYYWKGSGYSLKATTMMIRPADF
notes: also called rhAng2; angiopoietin-2
The term Kd denotes the equilibrium constant for the complex coming apart. Regarding B1, the Kd amounted to 4.26 nM.
